Like-named read-outs stand apart in the source and are kept apart here.
T1: cyno MerTK-his protein (cynomolgus, UniProt A0A2K5V1H9 27-505)
T1 construct: also called cyno MerTK protein; Cynomolgus
T1 sequence: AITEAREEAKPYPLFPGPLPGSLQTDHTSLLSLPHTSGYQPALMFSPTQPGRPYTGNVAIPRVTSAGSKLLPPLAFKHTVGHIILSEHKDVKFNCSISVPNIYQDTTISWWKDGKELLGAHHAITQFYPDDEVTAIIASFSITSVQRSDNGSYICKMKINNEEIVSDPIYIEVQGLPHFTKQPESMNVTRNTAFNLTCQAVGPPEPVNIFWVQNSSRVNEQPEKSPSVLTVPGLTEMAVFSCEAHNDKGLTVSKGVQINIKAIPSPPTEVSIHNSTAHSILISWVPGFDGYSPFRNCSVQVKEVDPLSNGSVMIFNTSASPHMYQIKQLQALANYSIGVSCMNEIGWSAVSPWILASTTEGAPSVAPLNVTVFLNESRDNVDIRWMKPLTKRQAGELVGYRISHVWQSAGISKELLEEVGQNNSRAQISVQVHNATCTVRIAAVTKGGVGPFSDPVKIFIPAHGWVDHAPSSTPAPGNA

T2: human MerTK-his protein (human, UniProt Q12866 21-505)
T2 construct: extracellular domain; also called hMerTK-His; human MerTK protein
T2 sequence (looked up): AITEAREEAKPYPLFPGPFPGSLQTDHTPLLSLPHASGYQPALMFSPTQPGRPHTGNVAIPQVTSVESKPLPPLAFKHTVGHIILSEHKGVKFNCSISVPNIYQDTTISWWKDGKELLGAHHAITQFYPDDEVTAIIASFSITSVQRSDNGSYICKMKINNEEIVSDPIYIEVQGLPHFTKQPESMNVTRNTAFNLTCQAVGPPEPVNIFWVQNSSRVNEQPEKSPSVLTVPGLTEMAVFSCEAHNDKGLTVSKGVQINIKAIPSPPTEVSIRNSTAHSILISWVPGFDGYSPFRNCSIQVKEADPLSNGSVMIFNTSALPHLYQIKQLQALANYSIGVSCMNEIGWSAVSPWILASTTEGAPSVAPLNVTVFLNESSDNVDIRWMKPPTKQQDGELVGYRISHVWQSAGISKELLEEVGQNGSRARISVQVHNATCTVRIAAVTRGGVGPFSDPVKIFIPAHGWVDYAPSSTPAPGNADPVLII

T3: human MerTK expressed on cells (human, UniProt Q12866 21-999)
T3 construct: whole, on cells; also called CHO-K1-hMerTK; CHO-K1-MerTK
T3 sequence (looked up): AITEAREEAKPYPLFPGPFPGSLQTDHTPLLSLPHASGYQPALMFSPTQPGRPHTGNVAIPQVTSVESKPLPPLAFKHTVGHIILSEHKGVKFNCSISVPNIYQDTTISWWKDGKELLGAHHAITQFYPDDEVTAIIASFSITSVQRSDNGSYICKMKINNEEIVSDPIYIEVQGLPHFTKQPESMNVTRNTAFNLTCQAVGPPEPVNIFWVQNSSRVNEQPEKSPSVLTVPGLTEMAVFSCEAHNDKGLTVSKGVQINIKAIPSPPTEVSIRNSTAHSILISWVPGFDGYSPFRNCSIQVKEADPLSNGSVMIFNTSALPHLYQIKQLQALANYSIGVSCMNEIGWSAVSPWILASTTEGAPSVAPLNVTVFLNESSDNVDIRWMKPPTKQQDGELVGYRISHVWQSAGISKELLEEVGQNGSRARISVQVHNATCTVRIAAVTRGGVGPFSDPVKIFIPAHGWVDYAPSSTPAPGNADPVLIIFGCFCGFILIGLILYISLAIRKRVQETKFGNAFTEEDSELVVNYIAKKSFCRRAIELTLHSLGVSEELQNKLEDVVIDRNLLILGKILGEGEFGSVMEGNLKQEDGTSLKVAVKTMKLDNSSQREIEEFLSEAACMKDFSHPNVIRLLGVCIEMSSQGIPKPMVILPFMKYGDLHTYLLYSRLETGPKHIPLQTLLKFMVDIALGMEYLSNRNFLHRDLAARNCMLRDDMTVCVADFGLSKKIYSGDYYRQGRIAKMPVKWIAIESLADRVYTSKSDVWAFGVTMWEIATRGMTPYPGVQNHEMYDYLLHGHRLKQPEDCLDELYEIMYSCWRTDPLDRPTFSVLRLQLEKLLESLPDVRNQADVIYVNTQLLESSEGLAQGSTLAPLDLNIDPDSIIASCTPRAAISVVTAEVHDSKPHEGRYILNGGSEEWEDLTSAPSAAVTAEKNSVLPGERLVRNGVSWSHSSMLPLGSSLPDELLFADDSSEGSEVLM


Columns and labels:
[1] = target: T1, cyno MerTK-his protein; assay: ELISA, coated cyno MerTK-his
Protocol: (§1) To evaluate the binding activity, the chimeric mAbs were subjected to ELISA test. Briefly, 96-well plates were coated with human or cyno MerTK-his protein at 2 μg/mL in PBS, 100 μL/well at 4° C. overnight, then blocked with 150 μL/well of 1% BSA. Five-fold dilutions of MerTK antibodies starting from 20 nM were added to each well and incubated for 1 hour at room temperature. The plates were washed with PBS/Tween-20 and then incubated with goat anti-human IgG Fe antibody conjugated with Horse Radish Peroxidase (HRP) for 30 minutes (mins) at room temperature. After washing, the plates were developed with TMB substrate and subsequent stop solution was added to complete the reaction. The signal from each well was read by spectrophotometer at OD 450 nm.

[2] = target: T2, human MerTK-his protein; assay: ELISA, coated human MerTK-his
Protocol: as §1

[3] = target: T3, human MerTK expressed on cells; assay: FACS on SK-MEL-5 cells expressing human MerTK, geometric mean
Protocol: (§2) To evaluate the binding properties on MerTK expressed on cells, the chimeric monoclonal antibodies were analyzed for their binding to human melanoma cell line SK-MEL-5 expressing MerTK by FACS analysis. Briefly, SK-MEL-5 cells were firstly incubated with 5-fold serially diluted chimeric mAbs starting at 20 nM at 4° C. for 30 mins. After washing by FACS buffer, the PE conjugated anti-human IgG secondary antibody was incubated with the cell-antibody complex in the wells at 4° C. for 30 mins to detect the antibodies those bound to the cells. The MFI of PE was evaluated by QuantAnalyzer 16.

[4] = target: T3, human MerTK expressed on cells; assay: as above; remark: listed apart in the source
Protocol: as §2

EC50 [1]	EC50 [2]	EC50 [3]	Top [3]	EC50 [4]	Top [4]	Binder
0.02 nM	0.019 nM	0.044 nM	6950 Geometric Mean	–	–	276C2D1 chimeric monoclonal antibody (antibody, V domains shown) VH: QVQLQQSGPELVKPGASVKLSCKASGYTFTSYDINWVKQRPGLGLEWIGWIYPRDGYTKYNEKFKGKATLAVDTSSSTAYMELHSLTSEDSAVYFCARGYYSNLYYFDYWGQGTTLTVSS VL: EVVLTQSPPTMAASPGEKITITCSASSSISSNYLHWYQQKPGFSPKLLIYRTSNLASGVPARFSGSGSGTSYSLTIGTMEAEDVATYYCQQGRSIPLTFGAGTKLELK
0.017 nM	0.0097 nM	0.048 nM	7750 Geometric Mean	–	–	265F11B5 chimeric monoclonal antibody (antibody, V domains shown) VH: QVQLQQSGPELVKPGASVRLSCKASGYTFTTYDINWVKQRPGLGLEWIGWIYPRDGYTKYNEKFKGRATLAVDTSSSTAYMELHSLTSEDSAVYFCTRGYYDNLYYFDYWGQGTTLTVSS VL: EIVLTQSPTTVAASPGEKITITCSASSIISSNYFHWYQQRPGFSPKLLIYRTSNLASGVPARFSGSGSGTSYSLTIGTMEAEDVATYYCQQGRSVPLTFGAGTKLELK
0.02 nM	0.017 nM	0.055 nM	6960 Geometric Mean	–	–	293C2B7 chimeric monoclonal antibody (antibody, V domains shown) VH: QVQLQQSGPELVKPGASVKLSCKASGYTFTSYDINWVKQRPGQGLEWIGWIYPRDGYTKYKEKFKGKATLTVDTSSSTAYMELHSLTSEDSAVYFCARGFYSNLYYFDYWGQGTTLTVSS VL: EIVLTQSPTTMATSPGEKITITCSASSSISSNYLHWYQQKPGFSPKLLIYRTSNLASGVPDRFSGSGSGTSYSLTIGTMEAEDVATYYCQQGRSIPLTFGAGTKLELK
0.15 nM	0.052 nM	–	–	0.053 nM	4790 Geometric Mean	252H9D5 chimeric monoclonal antibody (antibody, V domains shown) VH: QVTLRESGPGILQPSQTLSLTCSFSGFSLNTFGMGVGWIRQSSGKGLKWLAHIWWDDDKFYNPALKSRLTISKDTSKNQVFLKIANVDTTDTATYYCARIEGGLPYYYDYWGQGTPLIVSS VL: DIVMTQSQKIMSTSVGDRISVTCKASQIVGTNVVWYQQKPGQSPKALIYSTSYRYSGVPDRFTGSRSGTDFTLTISNVQSEDLANYFCQQYNSYPFTFGSGTKLEIK
0.056 nM	0.047 nM	–	–	0.18 nM	4840 Geometric Mean	254B4D9 chimeric monoclonal antibody (antibody, V domains shown) VH: QIQLVQSGPELKKPGETVKISCKASGYTFTAYGMSWVKQAPGKGLQWMGWINTYSGVPTYTDDFKGRFAFSLEASASTAFLQINNLKNEDTSTYFCARRAAVVAKYWYFDVWGTGTTVTVSS VL: DIQMTQSPSSLFASLGGKVIITCKSSQDINKRISWYQHKPGKGPRLLIHSTSSLQPGIPLRFSGSGSGRDYSFSISNLEPEDIATYFCLQYDNLLTFGAGTKLELK
0.047 nM	0.046 nM	–	–	0.17 nM	8270 Geometric Mean	216G3D6 chimeric monoclonal antibody (antibody, V domains shown) VH: QVTLKESGPGILQPSQTLSLTCSFSGFSLSTSGMGVGWIRQPSGKGLEWLAHIWWDDDKHCNPALKSRLTISKDTSSNQVFLKIASLDTADTATYYCTQMTMTREFAYWGQGTLVTVSA VL: DIQMTQTISSLSASLGDRVTISCSAGQGISNYLNWYQQKPDGTVKLLIYYTSRLHSGVPSRFSGSGSGTDFSLTISNLEPEDIATYFCQQYSKFPYTFGGGTKLEIK
0.04 nM	0.039 nM	–	–	0.043 nM	4460 Geometric Mean	252C12B10 chimeric monoclonal antibody (antibody, V domains shown) VH: QVQLQQPGTELVKPGASVKLSCKTSGYTFTSYWMHWMKQRPGQGLEWLGHINPSTGGSNYNEKFKSKATLTVDKSSNTAYMQLSSLTSEDSAVYYCARPRGFYGYSYWYFDVWGSGTTVTVSS VL: DIQMTQTTSSLSASLGDRVTISCSASQDINNYLNWYQHKPDGTIKVLIYFTSSLHSGVPSRFSGSGSGTEYSLTISNLEPEDIATYYCQQYSKLPPTFGSGTKLEIK
0.037 nM	0.032 nM	–	–	0.094 nM	7160 Geometric Mean	247E5A8 chimeric monoclonal antibody (antibody, V domains shown) VH: DVQLQESGPGLVKPSQSLSLTCSVTGYSITGGYYWTWIRQFPGNKLEWMGYISYDGDNNYNPSLKNRISITRDTSKNQFFLNLNSVTTEDTATYYCAREGGRLRTMDYWGQGTSVTVSS VL: QIVLTQSPAIMSASPGEKVTITCRASSSVNYMHWFQQKPGTSPKLWIYTTSNLASGVPARFSGSGSGTSYSLTISRMEAEDAATYYCQQRSSYPFTFGSGTKLEIK
–	–	0.12 nM	4530 Geometric Mean	0.092 nM	4520 Geometric Mean	h13B4.v16 benchmark antibody (antibody, V domains shown) VH: EVQLVESGEGLVQPGGSLRLSCAASGFSLSSYAMGWVRQAPGKGLEYVGIINSYGNTYYANWAKGRFTISRDNSKNTVYLQMGSLRAEDMAVYYCARDPGVSSNLWGRGTLVTVSS VL: DIQMTQSPSTLSASVGDRVTITCQASQNIYSGLAWYQQKPGKAPKLLIYGASKLASGVPSRFSGSGSGTEFTLTISSLQPDDFATYYCQATYYSSNSVAFGGGTKVEIK
0.024 nM	0.027 nM	–	–	0.025 nM	7070 Geometric Mean	10F7D9 chimeric monoclonal antibody (antibody, V domains shown) VH: QIQLVQSGPELKKPGETVKISCKASGYTFTNYGMNWVKQAPGKGLKWMGWINTYTGEPTYADDFKGRFAFSLETSASTAYLQINNLKNEDLATYFCATYGHYAWFAYWGQGTLVTVSA VL: QIVLSQSPAILSASPGEKVTMTCRASSSVSYMHWYQQKSGSSPKPWIYATSNLASGVPARFSGSGSGTSYSLTISRVEAEDAATYFCQQWGTKPLTFGAGTKLELK
0.024 nM	0.025 nM	–	–	0.022 nM	6860 Geometric Mean	85H8D5 chimeric monoclonal antibody (antibody, V domains shown) VH: QIQLVQSGPELKKPGETVKISCMASGYTFTTHGVTWVKQAPGQGLQRMGWINTYSGVPTYADDFKGRFVFSLETSANTAHLQINNLKNEDTATYFCARTNNYRYFDVWGTGTTVTVSS VL: QIVLSQSPAILSSSPGEKVTMTCRASSSVSYMHWYQQKPGSSPKPWIYATSNLASGVPARFSGSGSGTSYFLTISRVEAEDAATYYCQQWNTDPPTFGGGTKLEIK

Reference: patent US20260028422A1 (CONCEPT TO MEDICINE BIOTECH, published 2026)
